Results published in article PMC5320943 (Structure (London, England : 1993), 2016).

Tests used:
[1] = target: wild-type vaginolysin (VLY^wt) (Gardnerella vaginalis, UniProt B2YGA4 31-516); experiment: MST
[2] = target: T1, wild-type intermedilysin (ILY^wt) (Streptococcus intermedius, UniProt Q9LCB8 34-532); experiment: MST
T1 sequence: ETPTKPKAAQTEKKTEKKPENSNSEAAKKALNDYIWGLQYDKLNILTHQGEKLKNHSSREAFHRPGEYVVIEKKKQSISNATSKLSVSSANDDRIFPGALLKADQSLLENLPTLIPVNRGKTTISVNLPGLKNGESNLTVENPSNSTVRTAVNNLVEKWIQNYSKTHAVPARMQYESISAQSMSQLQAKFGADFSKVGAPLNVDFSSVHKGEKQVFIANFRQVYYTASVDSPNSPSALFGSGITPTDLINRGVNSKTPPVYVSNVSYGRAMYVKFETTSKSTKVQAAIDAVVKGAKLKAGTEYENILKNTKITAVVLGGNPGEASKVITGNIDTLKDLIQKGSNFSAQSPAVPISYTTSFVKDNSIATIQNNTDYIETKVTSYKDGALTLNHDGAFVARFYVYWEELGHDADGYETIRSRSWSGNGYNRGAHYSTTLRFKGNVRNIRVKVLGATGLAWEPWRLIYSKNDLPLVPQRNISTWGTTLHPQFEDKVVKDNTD

B1: CD59 mutant D22A (CD59^D22A) (receptor, human)
chain: LQCYNCPNPTADCKTAVNCSSAFDACLITKAGLQVYNKCWKFEHCNFNDVTTRLRENELTYYCCKKDLCNFNEQLEN
modifications: Dylight 650 label (in the microscale thermophoresis only)
Kd [1]: 779 nM | Kd [2]: 367 nM
